In series [1] the test system is HeLa Kyoto. As to the kind of experiment: solubility in G1/S (NP-40 vs SDS abundance) (log2 ratio); higher = more soluble. The settings on record: cell cycle stage: G1/S.
The test system of series [2] is HeLa Kyoto. As to the kind of experiment: solubility change mitosis vs G1/S (difference of NP-40 vs SDS log2 ratios) (log2 ratio difference); higher = more soluble in mitosis.
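Throughout, for solubility change mitosis vs G1/S (difference of NP-40 vs SDS log2 ratios): synchronized HeLa Kyoto cells (double thymidine block for G1/S, nocodazole release for mitosis), protein amounts in NP-40 versus SDS lysates quantified by mass spectrometry, three biological replicates.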
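Throughout, for solubility in G1/S (NP-40 vs SDS abundance): HeLa Kyoto cells arrested at G1/S by double thymidine block, proteins quantified by TMT10plex mass spectrometry in mild NP-40 versus SDS extracts, three biological replicates.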

As to “MEPRRAAPGVPGWGSREAAGSASAAELVYHLAGALGTELQDLARRFGPEAAAGLVPLVVRALELLEQAAVGPAPDSLQVSAQPAEQELRRLREENERLRRELRAGPQEERALLRQLKEVTDRQRDELRAHNRDLRQRGQETEALQEQLQRLLLVNAELRHKLAAMQTQLRAAQDRERERQQPGEAATPQAKERARGQAGRPGHQHGQEPEWATAGAGAPGNPEDPAEAAQQLGRPSEAGQCRFSREEFEQILQERNELKAKVFLLKEELAYFQRELLTDHRVPGLLLEAMKVAVRKQRKKIKAKMLGTPEEAESSEDEAGPWILLSDDKGDHPPPPESKIQSFFGLWYRGKAESSEDETSSPAPSKLGGEEEAQPQSPAPDPPCSALHEHLCLGASAAPEA [RILP]”, the “solubility in G1/S (log2)” value with HeLa Kyoto [1] was found to be 0.551. For the same substance, the “solubility change mitosis (log2)” value with HeLa Kyoto [2] was 0.11.
On the same counts, the results for “MSRLEAKKPSLCKSEPLTTERVRTTLSVLKRIVTSCYGPSGRLKQLHNGFGGYVCTTSQSSALLSHLLVTHPILKILTASIQNHVSSFSDCGLFTAILCCNLIENVQRLGLTPTTVIRLNKHLLSLCISYLKSETCGCRIPVDFSSTQILLCLVRSILTSKPACMLTRKETEHVSALILRAFLLTIPENAEGHIILGKSLIVPLKGQRVIDSTVLPGILIEMSEVQLMRLLPIKKSTALKVALFCTTLSGDTSDTGEGTVVVSYGVSLENAVLDQLLNLGRQLISDHVDLVLCQKVIHPSLKQFLNMHRIIAIDRIGVTLMEPLTKMTGTQPIGSLGSICPNSYGSVKDVCTAKFGSKHFFHLIPNEATICSLLLCNRNDTAWDELKLTCQTALHVLQLTLKEPWALLGGGCTETHLAAYIRHKTHNDPESILKDDECTQTELQLIAEAFCSALESVVGSLEHDGGEILTDMKYGHLWSVQADSPCVANWPDLLSQCGCGLYNSQEELNWSFLRSTRRPFVPQSCLPHEAVGSASNLTLDCLTAKLSGLQVAVETANLILDLSYVIEDKN [MKKS]” are -0.925 and 0.46.
With “MEESMEEEEGGSYEAMMDDQNHNNWEAAVDGFRQPLPPPPPPSSIPAPAREPPGGQLLAVPAVSVDRKGPKEGLPMGPQPPPEANGVIMMLKSCDAAAAVAKAAPAPTASSTININTSTSKFLMNVITIEDYKSTYWPKLDGAIDQLLTQSPGDYIPISYEQIYSCVYKCVCQQHSEQMYSDLIKKITNHLERVSKELQASPPDLYIERFNIALGQYMGALQSIVPLFIYMNKFYIETKLNRDLKDDLIKLFTEHVAEKHIYSLMPLLLEAQSTPFQVTPSTMANIVKGLYTLRPEWVQMAPTLFSKFIPNILPPAVESELSEYAAQDQKFQRELIQNGFTRGDQSRKRAGDELAYNSSSACASSRGYR [CACUL1]”, the “solubility in G1/S (log2)” value in the series with HeLa Kyoto [1] was 0.278. Moreover, in the series with HeLa Kyoto [2], the “solubility change mitosis (log2)” value worked out at 0.103.
On the same counts, the results for “MAEGGGPEPGEQERRSSGPRPPSARDLQLALAELYEDEVKCKSSKSNRPKATVFKSPRTPPQRFYSSEHEYSGLNIVRPSTGKIVNELFKEAREHGAVPLNEATRASGDDKSKSFTGGGYRLGSSFCKRSEYIYGENQLQDVQILLKLWSNGFSLDDGELRPYNEPTNAQFLESVKRGEIPLELQRLVHGGQVNLDMEDHQDQEYIKPRLRFKAFSGEGQKLGSLTPEIVSTPSSPEEEDKSILNAVVLIDDSVPTTKIQIRLADGSRLIQRFNSTHRILDVRNFIVQSRPEFAALDFILVTSFPNKELTDESLTLLEADILNTVLLQQLK [UBXN2B]” are 0.562 and 0.053.
On the same counts, the results for ATG2A are -0.135 and -0.036.
On the same counts, the results for “MGKAKVPASKRAPSSPVAKPGPVKTLTRKKNKKKKRFWKSKAREVSKKPASGPGAVVRPPKAPEDFSQNWKALQEWLLKQKSQAPEKPLVISQMGSKKKPKIIQQNKKETSPQVKGEEMPAGKDQEASRGSVPSGSKMDRRAPVPRTKASGTEHNKKGTKERTNGDIVPERGDIEHKKRKAKEAAPAPPTEEDIWFDDVDPADIEAAIGPEAAKIARKQLGQSEGSVSLSLVKEQAFGGLTRALALDCEMVGVGPKGEESMAARVSIVNQYGKCVYDKYVKPTEPVTDYRTAVSGIRPENLKQGEELEVVQKEVAEMLKGRILVGHALHNDLKVLFLDHPKKKIRDTQKYKPFKSQVKSGRPSLRLLSEKILGLQVQQAEHCSIQDAQAAMRLYVMVKKEWESMARDRRPLLTAPDHCSDDA [REXO4]” are -0.936 and 0.875.
As to “MSSLPRRAKVQVQDVVLKDEFSSFSELSSASEEDDKEDSAWEPQKKVPRSRKQPPPKESKPKRMPRVKKNAPQISDGSEVVVVKEELNSSVAIADTALEDRKNKLDTVQTLKTAKTKQKCAAQPHTVRRTKKLKVEEETSKASNLEGESNSSETPSTSTVWGGTCKKEENDDDFTFGQSALKKIKTETYPQGQPVKFPANANSTKEEVEMNWDMVQVLSERTNIEPWVCANIIRLFNDDNTIPFIIRYRKELINNLDADSLREVQQTLEELRAVAKKVHSTIQKIKKEGKMSECLLKAMLNCKTFEELEHVSAPYKTGSKGTKAQRARQLGLEGAARALLEKPGELSLLSYIRPDVKGLSTLQDIEIGVQHILADMIAKDKDTLDFIRNLCQKRHVCIQSSLAKVSSKKVNEKDVDKFLLYQHFSCNIRNIHHHQILAINRGENLKVLTVKVNISDGVKDEFCRWCIQNRWRPRSFARPELMKILYNSLNDSFKRLIYPLLCREFRAKLTSDAEKESVMMFGRNLRQLLLTSPVPGRTLMGVDPGYKHGCKLAIISPTSQILHTDVVYLHCGQGFREAEKIKTLLLNFNCSTVVIGNGTACRETEAYFADLIMKNYFAPLDVVYCIVSEAGASIYSVSPEANKEMPGLDPNLRSAVSIARRVQDPLAELVKIEPKHIGVGMYQHDVSQTLLKATLDSVVEECVSFVGVDINICSEVLLRHIAGLNANRAKNIIEWREKNGPFINREQLKKVKGLGPKSFQQCAGFIRINQDYIRTFCSQQTETSGQIQGVAVTSSADVEVTNEKQGKKKSKTAVNVLLKPNPLDQTCIHPESYDIAMRFLSSIGGTLYEVGKPEMQQKINSFLEKEGMEKIAERLQTTVHTLQVIIDGLSQPESFDFRTDFDKPDFKRSIVCLEDLQIGTVLTGKVENATLFGIFVDIGVGKSGLIPIRNVTEAKLSKTKKRRSLGLGPGERVEVQVLNIDIPRSRITLDLIRVL [SRBD1]”, the “solubility in G1/S (log2)” value in the series with HeLa Kyoto [1] is -0.649. For the same substance, in the series on HeLa Kyoto [2], the “solubility change mitosis (log2)” value worked out at 0.249.
On the same counts, the results for “MPLSSPNAAATASDMDKNSGSNSSSASSGSSKGQQPPRSASAGPAGESKPKSDGKNSSGSKRYNRKRELSYPKNESFNNQSRRSSSQKSKTFNKMPPQRGGGSSKLFSSSFNGGRRDEVAEAQRAEFSPAQFSGPKKINLNHLLNFTFEPRGQTGHFEGSGHGSWGKRNKWGHKPFNKELFLQANCQFVVSEDQDYTAHFADPDTLVNWDFVEQVRICSHEVPSCPICLYPPTAAKITRCGHIFCWACILHYLSLSEKTWSKCPICYSSVHKKDLKSVVATESHQYVVGDTITMQLMKREKGVLVALPKSKWMNVDHPIHLGDEQHSQYSKLLLASKEQVLHRVVLEEKVALEQQLAEEKHTPESCFIEAAIQELKTREEALSGLAGSRREVTGVVAALEQLVLMAPLAKESVFQPRKGVLEYLSAFDEETTEVCSLDTPSRPLALPLVEEEEAVSEPEPEGLPEACDDLELADDNLKEGTICTESSQQEPITKSGFTRLSSSPCYYFYQAEDGQHMFLHPVNVRCLVREYGSLERSPEKISATVVEIAGYSMSEDVRQRHRYLSHLPLTCEFSICELALQPPVVSKETLEMFSDDIEKRKRQRQKKAREERRRERRIEIEENKKQGKYPEVHIPLENLQQFPAFNSYTCSSDSALGPTSTEGHGALSISPLSRSPGSHADFLLTPLSPTASQGSPSFCVGSLEEDSPFPSFAQMLRVGKAKADVWPKTAPKKDENSLVPPAPVDSDGESDNSDRVPVPSFQNSFSQAIEAAFMKLDTPATSDPLSEEKGGKKRKKQKQKLLFSTSVVHTK [RNF10]” are -0.172 and -0.000862.
On the same counts, the results for “MALRLLRRAARGAAAAALLRLKASLAADIPRLGYSSSSHHKYIPRRAVLYVPGNDEKKIKKIPSLNVDCAVLDCEDGVAANKKNEARLRIVKTLEDIDLGPTEKCVRVNSVSSGLAEEDLETLLQSRVLPSSLMLPKVESPEEIQWFADKFSFHLKGRKLEQPMNLIPFVETAMGLLNFKAVCEETLKVGPQVGLFLDAVVFGGEDFRASIGATSSKETLDILYARQKIVVIAKAFGLQAIDLVYIDFRDGAGLLRQSREGAAMGFTGKQVIHPNQIAVVQEQFSPSPEKIKWAEELIAAFKEHQQLGKGAFTFQGSMIDMPLLKQAQNTVTLATSIKEK [CLYBL]” are -0.168 and 0.0246.

These data come from the supplement of paper PMC5998384.
